B1: HDV Ribozyme (parent)
chain: GGCCGGCAUGGUCCCAGCCUCCUCGCUGGCGCCGGCUGGGCAACAUUCCGAGGGGACCGUCCCCUCGGUAAUGGCGAAUGGGACCCA

Variants of: B1
Assay: self-cleavage, relative activity (ratio to wild type); higher = more cleavage; co-transcriptional

Row | Variant | self-cleavage
1 | GGCCGGCAUGGUCCCAGCCUCAUCGCUGGCGCCGGCUGGGCAACAUUCCGAGGGGACCGUCCCCCCGGUAAUGGCGAAUGGGACCCA [C22A U65C] | 0.446
2 | GGCCGGCAUGGUCCCAGCCUCAUCGCUGGCGCCGGCUGGGCAACAUUCCGAGGGGACCGUCCCCUCGGUAAAGGCGAAUGGGACCCA [C22A U72A] | 0.0665
3 | GGCCGGCAUGGUCCCAGCCUCAUCGCUGGCGCCGGCUGGGCAACAUUCCGAGGGGACCGUCCCCUCGGUAAGGGCGAAUGGGACCCA [C22A U72G] | 0.332
4 | GGCCGGCAUGGUCCCAGCCUCGUCGCUGGCGCCGGCUGGGCAACAUUCCGAGGGGGCCGUCCCCUCGGUAAUGGCGAAUGGGACCCA [C22G A56G] | 0.0875
5 | GGCCGGCAUGGUCCCAGCCUCGUCGCUGGCGCCGGCUGGGCAACAUUCCGAGGGGACCGUCCCCUCGGUCAUGGCGAAUGGGACCCA [C22G A70C] | 0.0489
6 | GGCCGGCAUGGUCCCAGCCUCGUCGCUGGCGCCGGCUGGGCAACAUUCCGAGGGGACCGUCCCCUCGGUAAUGGCGAAUGGGCCCCA [C22G A83C] | 0.0898
7 | GGCCGGCAUGGUCCCAGCCUCGUAGCUGGCGCCGGCUGGGCAACAUUCCGAGGGGACCGUCCCCUCGGUAAUGGCGAAUGGGACCCA [C22G C24A] | 0.0396
8 | GGCCGGCAUGGUCCCAGCCUCGUGGCUGGCGCCGGCUGGGCAACAUUCCGAGGGGACCGUCCCCUCGGUAAUGGCGAAUGGGACCCA [C22G C24G] | 0.0339
9 | GGCCGGCAUGGUCCCAGCCUCGUCGGUGGCGCCGGCUGGGCAACAUUCCGAGGGGACCGUCCCCUCGGUAAUGGCGAAUGGGACCCA [C22G C26G] | 0
10 | GGCCGGCAUGGUCCCAGCCUCGUCGUUGGCGCCGGCUGGGCAACAUUCCGAGGGGACCGUCCCCUCGGUAAUGGCGAAUGGGACCCA [C22G C26U] | 0.208
11 | GGCCGGCAUGGUCCCAGCCUCGUCGCUGGCGCCGGUUGGGCAACAUUCCGAGGGGACCGUCCCCUCGGUAAUGGCGAAUGGGACCCA [C22G C36U] | 0.108
12 | GGCCGGCAUGGUCCCAGCCUCGUCGCUGGCGCCGGCUGGGAAACAUUCCGAGGGGACCGUCCCCUCGGUAAUGGCGAAUGGGACCCA [C22G C41A] | 0.0346
13 | GGCCGGCAUGGUCCCAGCCUCGUCGCUGGCGCCGGCUGGGCAAAAUUCCGAGGGGACCGUCCCCUCGGUAAUGGCGAAUGGGACCCA [C22G C44A] | 0.0426
14 | GGCCGGCAUGGUCCCAGCCUCGUCGCUGGCGCCGGCUGGGCAACAUUUCGAGGGGACCGUCCCCUCGGUAAUGGCGAAUGGGACCCA [C22G C48U] | 0.0594
15 | GGCCGGCAUGGUCCCAGCCUCGUCGCUGGCGCCGGCUGGGCAACAUUCUGAGGGGACCGUCCCCUCGGUAAUGGCGAAUGGGACCCA [C22G C49U] | 0.0639
16 | GGCCGGCAUGGUCCCAGCCUCGUCGCUGGCGCCGGCUGGGCAACAUUCCGAGGGGACCGUACCCUCGGUAAUGGCGAAUGGGACCCA [C22G C61A] | 0.145
17 | GGCCGGCAUGGUCCCAGCCUCGUCGCUGGCGCCGGCUGGGCAACAUUCCGAGGGGACCGUCUCCUCGGUAAUGGCGAAUGGGACCCA [C22G C62U] | 0.0346
18 | GGCCGGCAUGGUCCCAGCCUCGUCGCUGGCGCCGGCUGGGCAACAUUCCGAGGGGACCGUCCUCUCGGUAAUGGCGAAUGGGACCCA [C22G C63U] | 0.147
19 | GGCCGGCAUGGUCCCAGCCUCGUCGCUGGCGCCGGCUGGGCAACAUUCCGAGGGGACCGUCCCUUCGGUAAUGGCGAAUGGGACCCA [C22G C64U] | 0.0536
20 | GGCCGGCAUGGUCCCAGCCUCGUCGCUGGCGCCGGCUGGGCAACAUUCCGAGGGGACCGUCCCCUAGGUAAUGGCGAAUGGGACCCA [C22G C66A] | 0.0692
21 | GGCCGGCAUGGUCCCAGCCUCGUCGCUGGCGCCGGCUGGGCAACAUUCCGAGGGGACCGUCCCCUCGGUAAUGGAGAAUGGGACCCA [C22G C75A] | 0
22 | GGCCGGCAUGGUCCCAGCCUCGUCGCUGGCGCCGGCUGGGCAACAUUCCGAGGGGACCGUCCCCUCGGUAAUGGGGAAUGGGACCCA [C22G C75G] | 0.181

Row | Variant | self-cleavage
23 | GGCCGGCAUGGUCCCAGCCUCGUCGCUGGCGCCGGCUGGGCAACAUUCCGAGGGGACCGUCCCCUCGGUAAUGGCGAAUGGGACCAA [C22G C86A] | 0.106
24 | GGCCGGCAUGGUCCCAGCCUCGUCGCUGGCGCCGGCUGGGCAACAUUCCGAGGGGACCGUCCCCUCGGUAAUGGCGAAUGGGACCUA [C22G C86U] | 0.0923
25 | GGCCGGCAUGGUCCCAGCCUCGUCGCUAGCGCCGGCUGGGCAACAUUCCGAGGGGACCGUCCCCUCGGUAAUGGCGAAUGGGACCCA [C22G G28A] | 0.0462
26 | GGCCGGCAUGGUCCCAGCCUCGUCGCUUGCGCCGGCUGGGCAACAUUCCGAGGGGACCGUCCCCUCGGUAAUGGCGAAUGGGACCCA [C22G G28U] | 0.0739
27 | GGCCGGCAUGGUCCCAGCCUCGUCGCUGGCCCCGGCUGGGCAACAUUCCGAGGGGACCGUCCCCUCGGUAAUGGCGAAUGGGACCCA [C22G G31C] | 0.0852
28 | GGCCGGCAUGGUCCCAGCCUCGUCGCUGGCGCCAGCUGGGCAACAUUCCGAGGGGACCGUCCCCUCGGUAAUGGCGAAUGGGACCCA [C22G G34A] | 0.0339
29 | GGCCGGCAUGGUCCCAGCCUCGUCGCUGGCGCCUGCUGGGCAACAUUCCGAGGGGACCGUCCCCUCGGUAAUGGCGAAUGGGACCCA [C22G G34U] | 0.0627
30 | GGCCGGCAUGGUCCCAGCCUCGUCGCUGGCGCCGACUGGGCAACAUUCCGAGGGGACCGUCCCCUCGGUAAUGGCGAAUGGGACCCA [C22G G35A] | 0.0615
31 | GGCCGGCAUGGUCCCAGCCUCGUCGCUGGCGCCGUCUGGGCAACAUUCCGAGGGGACCGUCCCCUCGGUAAUGGCGAAUGGGACCCA [C22G G35U] | 0.102
32 | GGCCGGCAUGGUCCCAGCCUCGUCGCUGGCGCCGGCUGAGCAACAUUCCGAGGGGACCGUCCCCUCGGUAAUGGCGAAUGGGACCCA [C22G G39A] | 0.0817
33 | GGCCGGCAUGGUCCCAGCCUCGUCGCUGGCGCCGGCUGGGCAACAUUCCGAGGGGACCCUCCCCUCGGUAAUGGCGAAUGGGACCCA [C22G G59C] | 0.151
34 | GGCCGGCAUGGUCCCAGCCUCGUCGCUGGCGCCGGCUGGGCAACAUUCCGAGGGGACCGUCCCCUCAGUAAUGGCGAAUGGGACCCA [C22G G67A] | 0.0898
35 | GGCCGGCAUGGUCCCAGCCUCGUCGCUGGCGCCGGCUGGGCAACAUUCCGAGGGGACCGUCCCCUCGCUAAUGGCGAAUGGGACCCA [C22G G68C] | 0.0354
36 | GGCCGGCAUGGUCCCAGCCUCGUCGCUGGCGCCGGCUGGGCAACAUUCCGAGGGGACCGUCCCCUCGGUAAUGGCGAAUCGGACCCA [C22G G80C] | 0.136
37 | GGCCGGCAUGGUCCCAGCCUCGUCGCUGGCGCCGGCUGGGCAACAUUCCGAGGGGACCGUCCCCUCGGUAAUGGCGAAUGGCACCCA [C22G G82C] | 0.0378
38 | GGCCGGCAUGGUCCCAGCCUCGUCGCUGGCGCCGGCAGGGCAACAUUCCGAGGGGACCGUCCCCUCGGUAAUGGCGAAUGGGACCCA [C22G U37A] | 0.0845
39 | GGCCGGCAUGGUCCCAGCCUCGUCGCUGGCGCCGGCUGGGCAACAAUCCGAGGGGACCGUCCCCUCGGUAAUGGCGAAUGGGACCCA [C22G U46A] | 0.0519
40 | GGCCGGCAUGGUCCCAGCCUCGUCGCUGGCGCCGGCUGGGCAACAGUCCGAGGGGACCGUCCCCUCGGUAAUGGCGAAUGGGACCCA [C22G U46G] | 0.0875
41 | GGCCGGCAUGGUCCCAGCCUCGUCGCUGGCGCCGGCUGGGCAACAUGCCGAGGGGACCGUCCCCUCGGUAAUGGCGAAUGGGACCCA [C22G U47G] | 0.0791
42 | GGCCGGCAUGGUCCCAGCCUCGUCGCUGGCGCCGGCUGGGCAACAUUCCGAGGGGACCGUCCCCCCGGUAAUGGCGAAUGGGACCCA [C22G U65C] | 0.0997
43 | GGCCGGCAUGGUCCCAGCCUCGUCGCUGGCGCCGGCUGGGCAACAUUCCGAGGGGACCGUCCCCUCGGAAAUGGCGAAUGGGACCCA [C22G U69A] | 0.095
44 | GGCCGGCAUGGUCCCAGCCUCGUCGCUGGCGCCGGCUGGGCAACAUUCCGAGGGGACCGUCCCCUCGGCAAUGGCGAAUGGGACCCA [C22G U69C] | 0.0755

Row | Variant | self-cleavage
45 | GGCCGGCAUGGUCCCAGCCUCGUCGCUGGCGCCGGCUGGGCAACAUUCCGAGGGGACCGUCCCCUCGGUAAUGGCGAACGGGACCCA [C22G U79C] | 0.105
46 | GGCCGGCAUGGUCCCAGCCUCGUCGCUGGCGCCGGCUGGGCAACAUUCCGAGGGGACCGUCCCCUCGGUAAUGGCGAAGGGGACCCA [C22G U79G] | 0.0665
47 | GGCCGGCAUGGUCCCAGCCUCUUCGCUGGCGCCGGCUGGGCGACAUUCCGAGGGGACCGUCCCCUCGGUAAUGGCGAAUGGGACCCA [C22U A42G] | 0.0755
48 | GGCCGGCAUGGUCCCAGCCUCUUCGCUGGCGCCGGCUGGGCAUCAUUCCGAGGGGACCGUCCCCUCGGUAAUGGCGAAUGGGACCCA [C22U A43U] | 0.0831
49 | GGCCGGCAUGGUCCCAGCCUCUUCGCUGGCGCCGGCUGGGCAACAUUCCGCGGGGACCGUCCCCUCGGUAAUGGCGAAUGGGACCCA [C22U A51C] | 0.928
50 | GGCCGGCAUGGUCCCAGCCUCUUCGCUGGCGCCGGCUGGGCAACAUUCCGAGGGGGCCGUCCCCUCGGUAAUGGCGAAUGGGACCCA [C22U A56G] | 0.895
51 | GGCCGGCAUGGUCCCAGCCUCUUCGCUGGCGCCGGCUGGGCAACAUUCCGAGGGGACCGUCCCCUCGGUACUGGCGAAUGGGACCCA [C22U A71C] | 0.623
52 | GGCCGGCAUGGUCCCAGCCUCUUCGCUGGCGCCGGCUGGGCAACAUUCCGAGGGGACCGUCCCCUCGGUAAUGGCGACUGGGACCCA [C22U A78C] | 0.126
53 | GGCCGGCAUGGUCCCAGCCUCUUCGCUGGCGCCGGCUGGGCAACAUUCCGAGGGGACCGUCCCCUCGGUAAUGGCGAGUGGGACCCA [C22U A78G] | 0.314
54 | GGCCGGCAUGGUCCCAGCCUCUUCGCUGGCGCCGGCUGGGCAACAUUCCGAGGGGACCGUCCCCUCGGUAAUGGCGAAUGGGCCCCA [C22U A83C] | 0.298
55 | GGCCGGCAUGGUCCCAGCCUCUUCGCUGGCGCCGGCUGGGCAACAUUCCGAGGGGACCGUCCCCUCGGUAAUGGCGAAUGGGACCCU [C22U A87U] | 0.644
56 | GGCCGGCAUGGUCCCAGCCUCUUCGAUGGCGCCGGCUGGGCAACAUUCCGAGGGGACCGUCCCCUCGGUAAUGGCGAAUGGGACCCA [C22U C26A] | 0.997
57 | GGCCGGCAUGGUCCCAGCCUCUUCGCUGGAGCCGGCUGGGCAACAUUCCGAGGGGACCGUCCCCUCGGUAAUGGCGAAUGGGACCCA [C22U C30A] | 0.117
58 | GGCCGGCAUGGUCCCAGCCUCUUCGCUGGUGCCGGCUGGGCAACAUUCCGAGGGGACCGUCCCCUCGGUAAUGGCGAAUGGGACCCA [C22U C30U] | 0.194
59 | GGCCGGCAUGGUCCCAGCCUCUUCGCUGGCGACGGCUGGGCAACAUUCCGAGGGGACCGUCCCCUCGGUAAUGGCGAAUGGGACCCA [C22U C32A] | 0.117
60 | GGCCGGCAUGGUCCCAGCCUCUUCGCUGGCGCUGGCUGGGCAACAUUCCGAGGGGACCGUCCCCUCGGUAAUGGCGAAUGGGACCCA [C22U C33U] | 0.533
61 | GGCCGGCAUGGUCCCAGCCUCUUCGCUGGCGCCGGAUGGGCAACAUUCCGAGGGGACCGUCCCCUCGGUAAUGGCGAAUGGGACCCA [C22U C36A] | 0.0739
62 | GGCCGGCAUGGUCCCAGCCUCUUCGCUGGCGCCGGCUGGGCAAAAUUCCGAGGGGACCGUCCCCUCGGUAAUGGCGAAUGGGACCCA [C22U C44A] | 0.0898
63 | GGCCGGCAUGGUCCCAGCCUCUUCGCUGGCGCCGGCUGGGCAACAUUGCGAGGGGACCGUCCCCUCGGUAAUGGCGAAUGGGACCCA [C22U C48G] | 0.635
64 | GGCCGGCAUGGUCCCAGCCUCUUCGCUGGCGCCGGCUGGGCAACAUUCCGAGGGGAGCGUCCCCUCGGUAAUGGCGAAUGGGACCCA [C22U C57G] | 0.914

Reference: the RNAGym collection of RNA variant scans (doi:10.7554/elife.80360)
